Tests used:
murine CD28-Fc = molecular target: T1, murine CD28-Fc (mouse, UniProt P31041 20-150); experiment: filter binding
T1 sequence: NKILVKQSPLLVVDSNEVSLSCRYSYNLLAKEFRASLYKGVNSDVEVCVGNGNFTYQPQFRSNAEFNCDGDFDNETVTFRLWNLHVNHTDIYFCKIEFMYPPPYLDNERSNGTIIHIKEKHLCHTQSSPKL

human CD28-Fc = human CD28-Fc (human, UniProt P10747 19-152); experiment: filter binding?

human CD28-Fc, sequence (P10747 19-152): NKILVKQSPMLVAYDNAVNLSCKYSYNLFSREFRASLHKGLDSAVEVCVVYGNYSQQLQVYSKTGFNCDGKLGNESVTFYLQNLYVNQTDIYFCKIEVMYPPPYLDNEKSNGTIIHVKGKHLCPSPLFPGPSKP

B1: CD28Apt7 (monomer) (structured_RNA)
RNA: GGGAGAGAGGAAGAGGGAUGGGGAUUAGACCAUAGGCUCCCAACCCCCAUAACCCAGAGGUCGAUAGUACUGGAUCCCCCC
modifications: 2'-fluoropyrimidine (2'-F C and U)
Kd (murine CD28-Fc): 60 nM | binding result (human CD28-Fc): no binding

From PMC3696906
